In US20110159588A1 (published 2011):

B1: TECD-Fc (extracellular domain of TMEFF2 fused to the Fc portion of human immunoglobulin gamma at the carboxy-terminus) (Fc fusion)
chain: FPTSLSDCQTPTGWNCSGYDDRENDLFLCDTNTCKFDGECLRIGDTVTCVCQFKCNNDYVPVCGSNGESYQNECYLRQAACKQQSEILVVSEGSCATDAGSGSGDGVHEGSGETSQKETSTCDICQFGAECDEDAEDVWCVCNIDCSQTNFNPLCASDGKSYDNACQIKEASCQKQEKIEVMSLGRCQDNTTTTTKSEDGHYARTDYAENANKLEESAREHHIPCPEHYNGFCMHGKCEHSINMQEPSCRCDAGYTGQHCEKK
notes: also called TECD-hFc; Fc-tagged TECD; not shown: subc
B5: TECD-FLAG (extracellular domain of TMEFF2 fused to a FLAG tag at the carboxy-terminus) (other)
chain: FPTSLSDCQTPTGWNCSGYDDRENDLFLCDTNTCKFDGECLRIGDTVTCVCQFKCNNDYVPVCGSNGESYQNECYLRQAACKQQSEILVVSEGSCATDAGSGSGDGVHEGSGETSQKETSTCDICQFGAECDEDAEDVWCVCNIDCSQTNFNPLCASDGKSYDNACQIKEASCQKQEKIEVMSLGRCQDNTTTTTKSEDGHYARTDYAENANKLEESAREHHIPCPEHYNGFCMHGKCEHSINMQEPSCRCDAGYTGQHCEKKWRADYKDDDDK
notes: Expressed in mammalian cells, purified from supernatant; also called FLAG-tagged TECD; TMEFF2-ECD

Columns and labels:
[1] = biological target: B5; test: ELISA, TECD-FLAG coat, anti-human Fc-HRP detection
Experimental: (§1) For the TMEFF2 coat format, MaxiSorp 96-well microwell plates (Thermo Scientific Nunc, Roskilde, Denmark) were coated with 1 μg/ml TECD-FLAG in 50 mM carbonate buffer, pH 9.6, overnight at 4° C. Plates were washed with PBS, pH 7.4 containing 0.05% polysorbate 20 and blocked with 0.5% bovine serum albumin (BSA), 15 parts per million Proclin 300 in phosphate buffered saline (PBS), pH 7.4 for 1 hour at room temperature. Serially diluted PDGF-AA, PDGF-AB or PDGF-BB in PBS containing 0.5% BSA, 0.05% polysorbate 20, and 15 parts per million Proclin 300 were added to the plates. After a 2-hour incubation, PDGF bound to the plates was detected by incubating biotinylated goat anti-human PDGF-AA or PDGF-AB or PDGF-BB in the wells for 1 hour, followed by horseradish peroxidase conjugated streptavidin (GE Healthcare, Piscataway, N.J.) for 30 min. Bound Fc-fusion protein was detected by adding goat anti-hman Fc-HRP (Jackson ImmunoResearch, West Grove, Pa.). After a final wash, the substrate 3,3′,5,5′-tetramethyl benzidine (Kirkegaard & Perry Laboratories) was added to plates and the reaction was stopped by adding 1 M phosphoric acid. Plates were washed with PBS, pH 7.4, containing 0.05% Tween 20, between steps and all incubation steps were performed at room temperature on an orbital shaker. Absorbance was read at 450 nm on a multiskan Ascent reader (Thermo Scientific, Hudson, N.H.). The titration curves were fitted using a four-parameter nonlinear regression curve-fitting program (KaleidaGraph, Synergy software, Reading, Pa.).
(§2) For testing binding of Fc-fusion proteins or his-tagged proteins to TECD-Flag coated on the plate, horseradish peroxidase conjugated goat anti-human Fc (Jackson ImmunoResearch, West Grove, Pa.) or biotinylated anti-His (Penta-His, Qiagen, Valencia, Calif.) followed by horseradish peroxidase conjugated streptavidin was used for detection. For testing TECD-Flag coat, serially diluted mouse anti-Flag (Sigma, St. Louis, Mo.) was added to the plates followed by horseradish peroxidase conjugated goat anti-mouse Fc (Jackson ImmunoResearch). Serially diluted PDGF-AA was also added to wells coated with goat anti-PDGF for comparison to wells coated with 1 μg/ml TECD-Flag. Bound PDGF-AA was detected as described above.

[2] = biological target: T1, recombinant human PDGF-AA (human, UniProt P04085 87-211, limits assumed); test: co-immunoprecipitation with anti-gD mAb from transfected 293 cells, anti-PDGF-A blot
T1 construct: Bought homodimer
Experimental: For binding of PDGF ligands to membrane-bound TMEFF2 proteins, 293 cells were transfected with the various TMEFF2 constructs and changed to fresh growth medium containing 5 μg/ml PDGF-AA or AB 48 hours after transfection. After 1 hour of incubation unbound PDGF ligands were washed away with ice cold PBS and cells were lysed in lysis buffer containing 50 mM Tris pH 8.0, 150 mM NaCl, 1 mM EDTA, 1% NP-40, and protease and phosphatase inhibitors, pre-cleared with protein G SEPHAROSE, and immunoprecipitated with anti-TMEFF2, anti-PDGF, or anti-gD antibodies. The immune complexes were dissociated with SDS sample buffer with (reducing condition) or without (non-reducing condition) β-mercaptoethanol and resolved by 4-20% Tris-Glycine SDS PAGE, transferred to nitrocellulose membranes, and detected with the indicated antibodies using enhanced chemiluminescence.
TMEFF2 contains 2 FS modules and an EGF-like domain. To dissect which domain(s) of TMEFF2 is/are involved in its interaction with PDGF-AA, Herpes simplex type 1 glycoprotein D (gD)-epitope tagged deletion mutants of TMEFF2 were made and examined for their ability to bind PDGF-AA when expressed on the surface of 293 cells (FIG. 4). As expected, PDGF-AA co-immunoprecipitated with gD-tagged full-length TMEFF2 by an anti gD monoclonal antibody. […]

[3] = biological target: B1; test: ELISA, PDGF coat, anti-human Fc-HRP detection
Experimental: For the PDGF coat format, plates were coated with 1 μg/ml PDGF-AA, PDGF-AB, PDGF-BB, PDGF-CC, or PDGF-DD. Serially diluted TECD-Fc was added to the plates. Bound TECD-Fc was detected using horseradish peroxidase conjugated goat anti-human Fc (Jackson ImmunoResearch, West Grove, Pa.).
(§3) To confirm that the binding observed is indeed due to the interaction between PDGF-AA and TMEFF2-ECD, we then immobilized the PDGF ligands on the plates, and applied the TMEFF2-ECD fused to a different tag, TECD-Fc, as an analyte.

[4] = biological target: T2, recombinant human soluble PDGF receptor α extracellular domain (PDGF sRα) (human, UniProt P16234 24-528, biotinylated using biotin-X-NHS in the ELISAs (sRα-bio); sites not stated); test: ELISA, PDGF coat, sRα-bio, streptavidin-HRP detection (FIG. 9B)
T2 construct: extracellular domain; also called sRα-bio; soluble PDGFRα extracellular domain
Experimental: FIG. 9 TECD-Fc competes with PDGF sRα for PDGF-AA binding. (A) PDGF-AA, but not AB, BB, CC or DD, binds to TECD-Fc. TECD-Fc was applied to wells coated with recombinant human PDGF-AA, AB, BB, CC or DD and detected with HRP-conjugated anti-human Fcγ. (B) sRα binds to all three recombinant human PDGF: AA, AB and BB. Biotinylated recombinant sRα (sRα-bio) was applied to wells coated with recombinant human PDGF-AA, AB, BB, CC or DD and detected with streptavidin-HRP. (C) 10 ng/ml TECD-Fc was mixed with increasing concentrations of sRα-bio and applied to PDGF-AA coated wells. Binding between sRα and PDGF-AA was detected using streptavidin-HRP.
as §3

[5] = biological target: T3, HER2 (human EGF-like receptor 2) ECD fused to hFcγ (human, UniProt P04626 23-652); test: ELISA, TECD-FLAG coat, anti-human Fc-HRP detection
T3 construct: extracellular domain; not shown: human Fc gamma
Experimental: as §1, §2

[6] = biological target: T4, HER3 (human EGF-like receptor 3) ECD fused to hFcγ (human, UniProt P21860 20-643); test: ELISA, TECD-FLAG coat, anti-human Fc-HRP detection
T4 construct: extracellular domain; not shown: human Fc gamma
Experimental: as §1, §2

[7] = biological target: T5, HER4 (human EGF-like receptor 4) ECD fused to hFcγ (human, UniProt Q15303 26-651); test: ELISA, TECD-FLAG coat, anti-human Fc-HRP detection
T5 construct: extracellular domain; not shown: human Fc gamma
T5 sequence (looked up): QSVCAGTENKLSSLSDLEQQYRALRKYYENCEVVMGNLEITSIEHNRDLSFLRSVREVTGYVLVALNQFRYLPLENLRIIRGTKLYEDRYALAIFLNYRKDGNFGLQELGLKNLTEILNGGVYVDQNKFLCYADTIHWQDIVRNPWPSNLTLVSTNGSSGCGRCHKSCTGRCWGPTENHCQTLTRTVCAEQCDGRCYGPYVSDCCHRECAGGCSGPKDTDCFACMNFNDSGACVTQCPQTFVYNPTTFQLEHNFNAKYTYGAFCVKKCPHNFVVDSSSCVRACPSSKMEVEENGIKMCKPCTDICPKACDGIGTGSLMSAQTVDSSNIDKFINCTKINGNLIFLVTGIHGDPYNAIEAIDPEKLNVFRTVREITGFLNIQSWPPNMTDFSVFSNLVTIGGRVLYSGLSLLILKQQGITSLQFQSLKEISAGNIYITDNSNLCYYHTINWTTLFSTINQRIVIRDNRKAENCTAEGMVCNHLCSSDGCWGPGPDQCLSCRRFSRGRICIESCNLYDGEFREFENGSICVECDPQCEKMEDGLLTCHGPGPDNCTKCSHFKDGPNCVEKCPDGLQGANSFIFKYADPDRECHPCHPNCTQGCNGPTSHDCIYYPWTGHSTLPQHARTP
Experimental: as §1, §2

[8] = biological target: T6, EGFR (human epithelial growth factor receptor) ECD fused to hFcγ (human, UniProt P00533 25-645); test: ELISA, TECD-FLAG coat, anti-human Fc-HRP detection
T6 construct: extracellular domain; not shown: human Fc gamma
Experimental: as §1, §2

T2 sequence (P16234 24-528): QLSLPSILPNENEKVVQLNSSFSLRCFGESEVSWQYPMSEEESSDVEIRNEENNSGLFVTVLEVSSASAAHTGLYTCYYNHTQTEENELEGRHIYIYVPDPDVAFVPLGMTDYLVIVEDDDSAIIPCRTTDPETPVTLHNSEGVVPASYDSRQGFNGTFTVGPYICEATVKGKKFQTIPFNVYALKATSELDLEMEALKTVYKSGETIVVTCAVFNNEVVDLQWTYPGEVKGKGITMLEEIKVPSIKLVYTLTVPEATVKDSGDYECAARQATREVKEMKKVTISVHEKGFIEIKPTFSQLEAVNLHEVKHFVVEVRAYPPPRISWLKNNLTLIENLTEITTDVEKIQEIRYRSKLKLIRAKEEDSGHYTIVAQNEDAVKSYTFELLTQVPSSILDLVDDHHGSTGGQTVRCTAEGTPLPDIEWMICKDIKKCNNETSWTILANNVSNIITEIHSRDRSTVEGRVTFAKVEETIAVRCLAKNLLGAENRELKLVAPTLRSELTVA
T4 sequence (P21860 20-643): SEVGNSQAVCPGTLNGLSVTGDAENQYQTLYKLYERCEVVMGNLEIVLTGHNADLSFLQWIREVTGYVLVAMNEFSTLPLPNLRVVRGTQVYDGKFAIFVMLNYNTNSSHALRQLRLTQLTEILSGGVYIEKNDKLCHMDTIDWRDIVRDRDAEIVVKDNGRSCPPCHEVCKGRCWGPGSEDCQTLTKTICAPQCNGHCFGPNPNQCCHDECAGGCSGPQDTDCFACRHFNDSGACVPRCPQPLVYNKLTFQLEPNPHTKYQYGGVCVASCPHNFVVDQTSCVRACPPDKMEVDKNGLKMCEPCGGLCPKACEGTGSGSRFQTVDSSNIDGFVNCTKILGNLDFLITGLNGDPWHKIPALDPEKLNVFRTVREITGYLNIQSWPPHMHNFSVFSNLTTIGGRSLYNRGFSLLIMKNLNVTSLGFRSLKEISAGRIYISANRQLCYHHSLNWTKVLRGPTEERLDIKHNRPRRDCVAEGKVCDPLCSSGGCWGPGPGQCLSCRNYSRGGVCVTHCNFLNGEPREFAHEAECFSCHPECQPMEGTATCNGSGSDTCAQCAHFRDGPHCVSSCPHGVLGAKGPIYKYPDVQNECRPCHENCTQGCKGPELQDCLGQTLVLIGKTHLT

B1
binding result [1]: no binding

B2: gD-TMEFF2-ΔFS I (gD-tagged TMEFF2 lacking the N-terminal follistatin module FS I) on 293 cells (receptor)
chain: KYALADASLKMADPNRFRGKDLPVLSGRCDICQFGAECDEDAEDVWCVCNIDCSQTNFNPLCASDGKSYDNACQIKEASCQKQEKIEVMSLGRCQDNTTTTTKSEDGHYARTDYAENANKLEESAREHHIPCPEHYNGFCMHGKCEHSINMQEPSCRCDAGYTGQHCEKKDYSVLYVVPGPVRFQYVLIAAVIGTIQIAVICVVVLCITRKCPRSNRIHRQKQNTGHYSSDNTTRASTRLI
notes: Deletion mutant; The true chain lacks the region up to and including FS I
binding result [2]: no binding (tested: 5 µg/ml)

B3: recombinant human PDGF-CC (ligand, UniProt Q9NRA1 235-345, looked up)
chain: VVDLNLLTEEVRLYSCTPRNFSVSIREELKRTDTIFWPGCLLVKRCGGNCACCLHNCNECQCVPSKVTKKYHEVLQLRPKTGVRGLHKSLTDVALEHHEECDCVCRGSTGG
notes: Bought homodimer
binding result [3]: no binding

B4: recombinant human PDGF-BB (ligand, UniProt P01127 82-190, looked up)
chain: SLGSLTIAEPAMIAECKTRTEVFEISRRLIDRTNANFLVWPPCVEVQRCSGCCNNRNVQCRPTQVQLRPVQVRKIEIVRKKPIFKKATVTLEDHLACKCETVAAARPVT
notes: Bought homodimer
binding result [3]: no binding
binding result [4]: binds

B5
binding result [5]: no binding
binding result [6]: no binding
binding result [7]: no binding
binding result [8]: no binding
